Values belong to the binder of their own block, whether it stands above or below them.
Assays:
[1] = target: T1, human Insc of the Insc:LGN:Gαi complex (human, UniProt Q1MX18-2 1-532); assay: SEC; Par3^PDZ123 mixed in molar excess with purified Insc:LGN:Gαi, SDS-PAGE of fractions; conditions: both partners purified
T1 construct: human Inscuteable; Same chain as the Insc chain of m16
T1 sequence (looked up): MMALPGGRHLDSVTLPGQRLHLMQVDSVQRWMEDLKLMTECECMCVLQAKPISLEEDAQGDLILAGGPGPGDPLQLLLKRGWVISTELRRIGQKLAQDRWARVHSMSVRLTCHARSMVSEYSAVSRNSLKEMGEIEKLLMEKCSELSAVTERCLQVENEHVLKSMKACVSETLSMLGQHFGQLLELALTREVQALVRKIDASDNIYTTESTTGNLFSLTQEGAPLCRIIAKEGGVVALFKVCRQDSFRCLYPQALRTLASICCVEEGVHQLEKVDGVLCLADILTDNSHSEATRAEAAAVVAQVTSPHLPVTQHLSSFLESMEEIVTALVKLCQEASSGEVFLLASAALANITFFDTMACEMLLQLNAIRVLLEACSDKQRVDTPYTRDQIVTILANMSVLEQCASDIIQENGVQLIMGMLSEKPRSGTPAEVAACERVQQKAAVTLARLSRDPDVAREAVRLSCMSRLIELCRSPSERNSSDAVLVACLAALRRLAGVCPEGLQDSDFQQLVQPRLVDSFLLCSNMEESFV

[2] = target: the molecule itself; assay: crystal structure; dLGN 25-406:Insc 283-623 complex, 3.4 Å, space group P212121, four tetramers in the asymmetric unit
[3] = target: T2, Drosophila LGN (Pins) TPR domain, residues 25-406 (Drosophila, UniProt Q9VB22 25-406); assay: SEC-MALS; static light scattering of the dLGN^TPR:Insc^ASYM complex eluting from a size-exclusion column; conditions: both partners purified
T2 construct: Pins (fly orthologue of LGN), Drosophila, residues 25-406 (TPR domain); Monomeric in isolation; two copies stand in the 2:2 tetramer with Insc^ASYM; also called dLGN^TPR; dLGN^25–406
T2 sequence (looked up): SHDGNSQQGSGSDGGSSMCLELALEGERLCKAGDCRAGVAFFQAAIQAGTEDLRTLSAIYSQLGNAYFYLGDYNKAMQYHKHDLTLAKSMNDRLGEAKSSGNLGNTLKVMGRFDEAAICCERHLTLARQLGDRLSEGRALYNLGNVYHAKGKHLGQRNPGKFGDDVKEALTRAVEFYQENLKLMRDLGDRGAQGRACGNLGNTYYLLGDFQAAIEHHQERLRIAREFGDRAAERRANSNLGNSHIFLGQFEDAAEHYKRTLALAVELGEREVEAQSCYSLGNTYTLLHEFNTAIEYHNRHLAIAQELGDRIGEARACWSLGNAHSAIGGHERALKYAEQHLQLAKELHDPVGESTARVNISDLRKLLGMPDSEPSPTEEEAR

- binding result [1]: binds
B1: human Par3^PDZ123 (residues 269-685), GST-tag removed (domain or fragment, UniProt Q8TEW0 269-685, looked up)
chain: DDMVKLVEVPNDGGPLGIHVVPFSARGGRTLGLLVKRLEKGGKAEHENLFRENDCIVRINDGDLRNRRFEQAQHMFRQAMRTPIIWFHVVPAANKEQYEQLSQSEKNNYYSSRFSPDSQYIDNRSVNSAGLHTVQRAPRLNHPPEQIDSHSRLPHSAHPSGKPPSAPASAPQNVFSTTVSSGYNTKKIGKRLNIQLKKGTEGLGFSITSRDVTIGGSAPIYVKNILPRGAAIQDGRLKAGDRLIEVNGVDLVGKSQEEVVSLLRSTKMEGTVSLLVFRQEDAFHPRELNAEPSQMQIPKETKAEDEDIVLTPDGTREFLTFEVPLNDSGSAGLGVSVKGNRSKENHADLGIFVKSIINGGAASKDGRLRVNDQLIAVNGESLLGKTNQDAMETLRRSMSTEGNKRGMIQLIVARRIS
notes: human Par3, residues 269-685 (the three PDZ domains), Uniprot Q8TEW0

- stoichiometry N [3]: 1 Insc per dLGN (2:2)
B2: Drosophila Inscuteable asymmetric domain, residues 283-623 (domain or fragment, UniProt Q24367 283-623, looked up)
chain: SLRFTASTSTPKSGSKIAKRGKKHPEPVASWMSEQRWAGEPEVMCTLQHKSIAQEAYKNYTITTSAVCKLVRQLQQQALSLQVHFERSERVLSGLQASSLPEALAGATQLLSHLDDFTATLERRGVFFNDAKIERRRYEQHLEQIRTVSKDTRYSLERQHYINLESLLDDVQLLKRHTLITLRLIFERLVRVLVISIEQSQCDLLLRANINMVATLMNIDYDGFRSLSDAFVQNEAVRTLLVVVLDHKQSSVRALALRALATLCCAPQAINQLGSCGGIEIVRDILQVESAGERGAIERREAVSLLAQITAAWHGSEHRVPGLRDCAESLVAGLAALLQPE
notes: Inscuteable, Drosophila, residues 283-623 (asymmetric domain: Insc^PEPT stretch, four-helix bundle, three Armadillo repeats); Two copies stand in the 2:2 tetramer with dLGN^TPR; also called Insc^ASYM; Insc-A^ASYM
- binding result [2]: binds

Reference: publication PMC5844954, “Insc:LGN tetramers promote asymmetric divisions of mammary stem cells” (Nature Communications, 2018)
